Tested on: MS2 coat protein
Assay: apparent KD of MS2 coat protein; higher = weaker reporter binding
Conditions: Eterna round: R107
Method in brief: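 Each design's apparent KD comes from the median of binding-curve fits to its normalised clusters. Those clusters carried RNA switches transcribed on-chip from Illumina sequencing clusters. SNAP-549-labelled MS2 coat protein was titrated onto them in twofold steps (0.7 or 1.5 nM to 3 µM; per step 0.8–1.5 h down to 10–20 min). Conditions were 100 mM Tris-HCl pH 7.5, 80 mM KCl, 4 mM MgCl2, without or with constant ligand.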

[1] = input ligand: theophylline 20 uM
[2] = input ligand: theophylline 2 mM
[3] = input ligand: tryptophan 2.4 mM

## UGUAUGGACUGAAGGAGCGGGUUGAUAACUUGAGGAUCACCCAGGUAAAAGGCGAAAGCCACCCAGGUAGGUCGCAGUCCAUACU
Input ligand: arginine 13.2 mM
  apparent KD of MS2 coat protein: 52.6 nM
Input ligand: none
  apparent KD of MS2 coat protein: 57.9 nM
[1]
  apparent KD of MS2 coat protein: 58.2 nM
[2]
  apparent KD of MS2 coat protein: 69.2 nM
[3]
  apparent KD of MS2 coat protein: 66.2 nM

## UGUAUGGACUGAAGGAGCGGUAGAUAACUUGAGGAUCACCCAGGUAAUAAGGCGAAAGCCUACCAGGUAGGUCGCAGUCCAUACU
Input ligand: arginine 13.2 mM
  apparent KD of MS2 coat protein: 203 nM
Input ligand: none
  apparent KD of MS2 coat protein: 144 nM
[1]
  apparent KD of MS2 coat protein: 171 nM
[2]
  apparent KD of MS2 coat protein: 153 nM
[3]
  apparent KD of MS2 coat protein: 138 nM

## UGUAUGUGAUCUGAUACCAGAGUGAAUAAACCUGAGGAUCACCCUGGUACGCGAAAGCGACUCCCUUGGCAGCAGAUCGCAUACU
Input ligand: arginine 13.2 mM
  apparent KD of MS2 coat protein: 127 nM
Input ligand: none
  apparent KD of MS2 coat protein: 163 nM
[1]
  apparent KD of MS2 coat protein: 108 nM
[2]
  apparent KD of MS2 coat protein: 21.8 nM
[3]
  apparent KD of MS2 coat protein: 156 nM

## UGUAUGUGAUCUGAUACCAGAGUGACGCGAAAGCGACCUGAGGAUCACCCUGGUAAAUAACUCCCUUGGCAGCAGAUCGCAUACU
Input ligand: arginine 13.2 mM
  apparent KD of MS2 coat protein: 43.8 nM
Input ligand: none
  apparent KD of MS2 coat protein: 45 nM
[1]
  apparent KD of MS2 coat protein: 36.6 nM
[2]
  apparent KD of MS2 coat protein: 17.8 nM
[3]
  apparent KD of MS2 coat protein: 48.3 nM

## UGUAUGUGAUCUGAUACCAGCGUUGAUAACCUGAGGAUCACCCUGGUAAGGCGAAAGCCACGCCCUUGGCAGCAGAUCGCAUACU
Input ligand: arginine 13.2 mM
  apparent KD of MS2 coat protein: 158 nM
[1]
  apparent KD of MS2 coat protein: 79.1 nM
[2]
  apparent KD of MS2 coat protein: 19.8 nM
[3]
  apparent KD of MS2 coat protein: 239 nM

## UGUAUGUGAUCUGAUACCAGCUAGCGGAAACGCAAGCUUGAGGAUCACCCAAGUGGAAUAAGCCCUUGGCAGCAGAUCGCAUACU [Denovo 5 #StaticStem #AlternativeMS2]
Input ligand: arginine 13.2 mM
  apparent KD of MS2 coat protein: 215 nM
Input ligand: none
  apparent KD of MS2 coat protein: 266 nM
[1]
  apparent KD of MS2 coat protein: 197 nM
[2]
  apparent KD of MS2 coat protein: 15.8 nM
[3]
  apparent KD of MS2 coat protein: 376 nM

## UGUAUGUGAUCUGAUACCAGCUUAAUAACAUGAGCAUCAGCCAUGUGGAGCGGAAACGCUAGCCCUUGGCAGCAGAUCGCAUACU [Denovo 11 #StaticStem #AlternativeMS2]
Input ligand: arginine 13.2 mM
  apparent KD of MS2 coat protein: 101 nM
Input ligand: none
  apparent KD of MS2 coat protein: 143 nM
[1]
  apparent KD of MS2 coat protein: 79 nM
[2]
  apparent KD of MS2 coat protein: 13.2 nM
[3]
  apparent KD of MS2 coat protein: 129 nM

## UGUAUGUGAUCUGAUACCAGCUUUGAUAACCUGAGGAUCACCCUGGUAAGGCGAAAGCCAAGCCCUUGGCAGCAGAUCGCAUACU
Input ligand: arginine 13.2 mM
  apparent KD of MS2 coat protein: 40.1 nM
Input ligand: none
  apparent KD of MS2 coat protein: 34.5 nM
[1]
  apparent KD of MS2 coat protein: 34.5 nM
[2]
  apparent KD of MS2 coat protein: 21.9 nM
[3]
  apparent KD of MS2 coat protein: 37.3 nM

## UGUAUGUGAUCUGAUACCAGUCCAACUGGUAAAACCUGAGGAACACCCAGGUAAAAUUGGGACCCUUGGCAGCAGAUCGCAUACU
Input ligand: arginine 13.2 mM
  apparent KD of MS2 coat protein: 99.5 nM
Input ligand: none
  apparent KD of MS2 coat protein: 246 nM
[1]
  apparent KD of MS2 coat protein: 147 nM
[2]
  apparent KD of MS2 coat protein: 23 nM
[3]
  apparent KD of MS2 coat protein: 264 nM

## UGUAUGUGAUUUGAUACCAGACCAACUGGUAAAACAUGAGGAUCACCCAUGUAAACUUGGGUCCCUUGGCAGCAAAUCGCAUACU [SSTheo B #22]
Input ligand: arginine 13.2 mM
  apparent KD of MS2 coat protein: 67.8 nM
[1]
  apparent KD of MS2 coat protein: 45.6 nM
[3]
  apparent KD of MS2 coat protein: 82.7 nM

## UGUAUGUGAUUUGAUACCAGACCAGCGGGUGUUACUUGAGGAACACCCAAGUAGGUUUGGGUCCCUUGGCAGCAAAUCGCAUACU [SS Theo B #24 Ms9]
Input ligand: arginine 13.2 mM
  apparent KD of MS2 coat protein: 452 nM
Input ligand: none
  apparent KD of MS2 coat protein: 39.2 nM
[1]
  apparent KD of MS2 coat protein: 309 nM
[2]
  apparent KD of MS2 coat protein: 1410 nM
[3]
  apparent KD of MS2 coat protein: 79 nM

## UGUAUGUGAUUUGAUACCAGACCAGCUGGUGGUACAUGAGCAUCAGCCAUGUAGGUUUGGGUCCCUUGGCAGCAAAUCGCAUACU [SS Theo B #24 Ms2]
Input ligand: arginine 13.2 mM
  apparent KD of MS2 coat protein: 20.7 nM
Input ligand: none
  apparent KD of MS2 coat protein: 21 nM
[1]
  apparent KD of MS2 coat protein: 28.7 nM
[2]
  apparent KD of MS2 coat protein: 19.3 nM
[3]
  apparent KD of MS2 coat protein: 21.4 nM

## UGUAUGUGAUUUGAUACCAGACCAGCUGGUGGUCCAUGAGGAACACCCAUGGAGGUUUGGGUCCCUUGGCAGCAAAUCGCAUACU [SS Theo B #24 Ms20]
Input ligand: arginine 13.2 mM
  apparent KD of MS2 coat protein: 152 nM
[1]
  apparent KD of MS2 coat protein: 130 nM
[2]
  apparent KD of MS2 coat protein: 74.5 nM
[3]
  apparent KD of MS2 coat protein: 89.7 nM

## UGUAUGUGAUUUGAUACCAGACCAGCUGGUGUUAGAUGAGGAUCACCCAUCUAGGUUUGGGUCCCUUGGCAGCAAAUCGCAUACU [SS Theo B #24 Ms13]
Input ligand: arginine 13.2 mM
  apparent KD of MS2 coat protein: 18 nM
Input ligand: none
  apparent KD of MS2 coat protein: 18 nM
[1]
  apparent KD of MS2 coat protein: 22.1 nM
[2]
  apparent KD of MS2 coat protein: 11.4 nM
[3]
  apparent KD of MS2 coat protein: 18 nM

## UGUAUGUGAUUUGAUACCAGAUCAGCUGGUUAUACAUGAGGAUCACCCAUGUUACUUUGGGUCCCUUGGCAGCAAAUCGCAUACU [SSTheo B #26]
Input ligand: arginine 13.2 mM
  apparent KD of MS2 coat protein: 165 nM
[1]
  apparent KD of MS2 coat protein: 355 nM
[3]
  apparent KD of MS2 coat protein: 535 nM

## UGUCACUGUUUGGUUCAAUGAAGAAGAAUUCGAGGACCGGUACGGCCGCCACUCGCUAUGCAACAUGAGGAUCACCCAUGUAAAA [theeternabot_exclusion_MS2_Trp_A_31]
Input ligand: arginine 13.2 mM
  apparent KD of MS2 coat protein: 13.4 nM
[1]
  apparent KD of MS2 coat protein: 17 nM
[2]
  apparent KD of MS2 coat protein: 17.3 nM

## UGUCAGCGAAAGUUGACAUGUCUUACCGGUCGAGGACCGGUACGGCCGCCACUCGAUCACUCGCACAUGAGGAUCACCCAUGUUG [SS Tryp A #21]
Input ligand: arginine 13.2 mM
  apparent KD of MS2 coat protein: 21.1 nM
[1]
  apparent KD of MS2 coat protein: 24.6 nM
[2]
  apparent KD of MS2 coat protein: 23.8 nM

## UGUCCGUGAUCGGCCGCCACUCAACAAACCUGUGGAAACUGACAUGAGGAUCACCCAUGUUCUUGGAGGACCGGGAUUGCUUCGA [theeternabot_sameState_MS2_Trp_B_4]
Input ligand: arginine 13.2 mM
  apparent KD of MS2 coat protein: 16.7 nM
[1]
  apparent KD of MS2 coat protein: 19.7 nM
[2]
  apparent KD of MS2 coat protein: 18.5 nM

## UGUCGAAACUGAAGGAGCGAGAUGACAACAUUGGGUCUAACAUGAGGAUCACCCAUGUAAUCUCAGGUAGGUCGCAGUGACAAAA [Exclusion Arginine B GF 15]
Input ligand: arginine 13.2 mM
  apparent KD of MS2 coat protein: 64.5 nM
Input ligand: none
  apparent KD of MS2 coat protein: 94.7 nM
[1]
  apparent KD of MS2 coat protein: 123 nM
[2]
  apparent KD of MS2 coat protein: 133 nM
[3]
  apparent KD of MS2 coat protein: 121 nM

## UGUGGGCGCACGGCCGCCACUGUCUUCAUCUGUUUGUCUACAUGAGGAUCACCCAUGUUGGUUUACAGGACCGGGUGCAUCUAUG [SSTryp B #12]
Input ligand: arginine 13.2 mM
  apparent KD of MS2 coat protein: 39.5 nM
[1]
  apparent KD of MS2 coat protein: 80.8 nM
[2]
  apparent KD of MS2 coat protein: 52.1 nM

## UGUGGGUCCGAAGAUACCAGCCAGCACAGCAUGUGUUUAAACAUGAGGAUCACCCAUGUCGGCCCUUGGCAGCUUGGUUUGGACG [theeternabot_exclusion_MS2_Theo_B_7]
Input ligand: arginine 13.2 mM
  apparent KD of MS2 coat protein: 15.5 nM
[1]
  apparent KD of MS2 coat protein: 19.8 nM
[3]
  apparent KD of MS2 coat protein: 15.8 nM

## UGUUUGGUGCGCGAGUGUUGGAUAAAUGAUACCAGUGUAGAUGUACGCCCUUGGCAGCGUAUCCGAACAUGAGGAUCACCCAUGU [5.aB]
Input ligand: arginine 13.2 mM
  apparent KD of MS2 coat protein: 26.7 nM
[1]
  apparent KD of MS2 coat protein: 44.9 nM
[3]
  apparent KD of MS2 coat protein: 36.3 nM

## UGUUUGGUGCGCGAGUGUUGGAUAAUUGAUACCAGUGUAGAUGUACGCCCUUGGCAGCGAAUCCGAACAUGAGGAUCACCCAUGU [5.aA]
Input ligand: arginine 13.2 mM
  apparent KD of MS2 coat protein: 36.7 nM
[1]
  apparent KD of MS2 coat protein: 45.6 nM
[3]
  apparent KD of MS2 coat protein: 30.2 nM

## UGUUUUGUGGGAAGGAGCGCAUACUUCACAUGAGGAUCACCCAUGUCAAGACGUGAGUCAGUGCAGGUAGGUCGCCUAGUUAAGA [Same State - Arginine B (Freestyle 16)]
Input ligand: arginine 13.2 mM
  apparent KD of MS2 coat protein: 52.8 nM
Input ligand: none
  apparent KD of MS2 coat protein: 70.4 nM
[1]
  apparent KD of MS2 coat protein: 59 nM
[2]
  apparent KD of MS2 coat protein: 61.9 nM
[3]
  apparent KD of MS2 coat protein: 49.3 nM

## UUAAAGGCACCUCAUGGGACUAUAAACCCGCGAGGACCGGUACGGCCGCCACUCGAAUAUCAACAUGAGGAUCACCCAUGUGGUU [theeternabot_exclusion_MS2_Trp_A_6]
Input ligand: arginine 13.2 mM
  apparent KD of MS2 coat protein: 16.2 nM
[1]
  apparent KD of MS2 coat protein: 32.3 nM
[2]
  apparent KD of MS2 coat protein: 29.6 nM

## UUAAAUGUGACGGAUACCAGCGUGUUGUAGAACAUGAGGAUCACCCAUGUAGUGAUCAUGCGCCCUUGGCAGCUGGUAUGUUUGA [7.aA]
Input ligand: arginine 13.2 mM
  apparent KD of MS2 coat protein: 189 nM
[1]
  apparent KD of MS2 coat protein: 543 nM
[3]
  apparent KD of MS2 coat protein: 480 nM

## UUAAGAGGAUAUCAAAUUUGAUUUUGUGAUACCAGAAUAAUUUUAUUCCCUUGGCAGCAUGACAUGAGGAUCACCCAUGUGUCUU [SSTheo A #1]
Input ligand: arginine 13.2 mM
  apparent KD of MS2 coat protein: 37.3 nM
[1]
  apparent KD of MS2 coat protein: 44.3 nM
[3]
  apparent KD of MS2 coat protein: 30.9 nM

## UUAAUCAUAUAUGAAAACAUAUAUGCAGAAGGAGCGUGAUAAAACACAGGUAGGUCGCUGAAGGGAACAUGAGGAUCACCCAUGU [AstrosSSArgA#2]
Input ligand: arginine 13.2 mM
  apparent KD of MS2 coat protein: 47.4 nM
Input ligand: none
  apparent KD of MS2 coat protein: 24.8 nM
[1]
  apparent KD of MS2 coat protein: 49 nM
[2]
  apparent KD of MS2 coat protein: 31.5 nM
[3]
  apparent KD of MS2 coat protein: 32.4 nM

## UUAAUCAUUAUAGAAAACUAUAAUGCAGAAGGAGCGUGAUAAAACACAGGUAGGUCGCUGAAGGGAACAUGAGGAUCACCCAUGU [AstrosSSArgA#6]
Input ligand: arginine 13.2 mM
  apparent KD of MS2 coat protein: 21.3 nM
Input ligand: none
  apparent KD of MS2 coat protein: 30.3 nM
[1]
  apparent KD of MS2 coat protein: 37.8 nM
[2]
  apparent KD of MS2 coat protein: 39.4 nM
[3]
  apparent KD of MS2 coat protein: 28.8 nM

— the supplement of paper PMC9170038
